Assay results: patent US9932404B2

Molecular target: full length human TLR3 (human)

Substance: TLR3.7 (eBiosciences, cat no 14-9039) (antibody)
- % inhibition of poly(I:C)-induced NF-κB luciferase reporter: 8%
